Conditions in all cases: both partners purified
Test [1] deals with T1, biotinylated α-cobratoxin from Naja kaouthia (Naja kaouthia, UniProt P01391, biotin (1:1.25 toxin: biotin reagent molar ratio; site not stated)).
T1 construct: source: bought: Latoxan (purified, from N. kaouthia), then biotinylated
As to the kind of experiment: BLI; […]) in HEPES-MES buffer pH 7.4; dissociation in HEPES-MES pH 7.4; 1:1 binding model, global fit; […]. In general terms: In BLI a coated tip is dipped into the sample, and binding shifts an interference pattern.

The target of test [2] is T2, biotinylated α-bungarotoxin from Bungarus multicinctus (Bungarus multicinctus, UniProt P60615).
T2 construct: source: bought: Latoxan (purified, from B. multicinctus), then biotinylated
T2 sequence (P60615 22-95): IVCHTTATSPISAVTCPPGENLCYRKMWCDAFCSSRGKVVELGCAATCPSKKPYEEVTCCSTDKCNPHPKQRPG
Kind of test: BLI.

Test [3] has as its target T1, biotinylated α-cobratoxin from Naja …. As to the kind of experiment: BLI; […]; dissociation in HEPES-MES pH 5.5; 1:1 binding model, global fit; […].

T1 sequence (P01391 whole entry): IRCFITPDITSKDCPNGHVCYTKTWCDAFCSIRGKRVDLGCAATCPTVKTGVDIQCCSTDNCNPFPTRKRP

B1: Fab TPL0197_01_C08 (Fab, V domains shown)
VH: EVQLVQSGAEVKKPGASVKVSCKASGYTFTSYGISWVRQAPGQGLEWMGWISAYNGNTNYAQKLQGRVTMTTDTSTSTAYMELRSLRSDDTAVYYCAREEYCSSTSCYVGNYYGMDVWGQGTLVTVSS
VL: DIQMTQSPSSLSASVGDRVTITCQASQDISNYLNWYQQKPGKAPKLLIYAASSLESGVPSRFSGSGSGTEFTLTITNLQVDDFATYYCQRYDSNFAFGQGTKVEIK
notes: also called Fab C08; source: ExpiCHO cells, purified (Ni-NTA / HisTrap Excel, desalting)
Turning to B1, the Kd (as a rule, the free concentration of one partner at which half of the binding sites on the other are occupied at equilibrium, for simple one-to-one binding) in test [1] stood at 44.8 nM. The koff (usually the first-order rate constant of dissociation) in test [1] stood at 0.00076 s⁻¹; in test [3] it was 0.00535 s⁻¹. Also, the binding result in test [2] is “no binding (tested: 300 nM)”.

The values above are taken from PMC10659949 (Protein Science : A Publication of the Protein Society, 2023).
